Tested on: Fur (HpFur) (Helicobacter pylori (G27?))
Assay: DNase I footprinting
Conditions: pOPI and pOPII; 150 uM dipyridyl, 1 mM DTT then 5 mM H2O2, versus no H2O2; 10 mM Tris-Cl pH 7.85, 50 mM NaCl, 10 mM KCl, 0.02% Igepal CA-630, 10% glycerol, 0.1 mM DTT (plus 1 or 5 mM DTT or 5 mM H2O2); 150 uM (NH4)2Fe(SO4)2 or …

Question: “Ppfr probe (apo-operators pOPI, pOPII, pOPIII; holo-operator pOPIV)” was tested. Which binding signal (fold higher Fur needed) did it give?
Answer: 5

— PMC4541418
